How the values were obtained:
[1] = molecular target: BTN2A1 (Ser44-Arg) and BTN3A1 (WT) co-expressed on NIH-3T3 cells (human) (UniProt Q7KYR7); experiment: flow cytometry on NIH-3T3 cells co-transfected with BTN2A1 Ser44-Arg and BTN3A1 WT, zoledronate (100 µM)
[2] = molecular target: BTN2A1 (Ser44-Arg) and BTN3A1 (WT) co-expressed on NIH-3T3 cells (human) (UniProt Q7KYR7); experiment: flow cytometry on NIH-3T3 cells co-transfected with BTN2A1 Ser44-Arg and BTN3A1 WT, no zoledronate
[3] = molecular target: BTN2A1 (WT) and BTN3A1 (WT) co-expressed on NIH-3T3 cells (human) (UniProt Q7KYR7); experiment: flow cytometry on NIH-3T3 cells co-transfected with BTN2A1 WT and BTN3A1 WT, no zoledronate
[4] = molecular target: BTN2A1 (WT) and BTN3A1 (WT) co-expressed on NIH-3T3 cells (human) (UniProt Q7KYR7); experiment: flow cytometry on NIH-3T3 cells co-transfected with BTN2A1 WT and BTN3A1 WT, zoledronate (100 µM)
[5] = molecular target: BTN2A1 (Ser44-Arg) and BTN3A1 (Glu106-Ala) co-expressed on NIH-3T3 cells (human) (UniProt Q7KYR7); experiment: flow cytometry on NIH-3T3 cells co-transfected with BTN2A1 Ser44-Arg and BTN3A1 Glu106-Ala, no zoledronate
[6] = molecular target: BTN2A1 (Ser44-Arg) and BTN3A1 (Glu106-Ala) co-expressed on NIH-3T3 cells (human) (UniProt Q7KYR7); experiment: flow cytometry on NIH-3T3 cells co-transfected with BTN2A1 Ser44-Arg and BTN3A1 Glu106-Ala, zoledronate (100 µM)
[7] = molecular target: BTN2A1 (WT) and BTN3A1 (Glu106-Ala) co-expressed on NIH-3T3 cells (human) (UniProt Q7KYR7); experiment: flow cytometry on NIH-3T3 cells co-transfected with BTN2A1 WT and BTN3A1 Glu106-Ala, zoledronate (100 µM)
[8] = molecular target: BTN2A1 (WT) and BTN3A1 (Glu106-Ala) co-expressed on NIH-3T3 cells (human) (UniProt Q7KYR7); experiment: flow cytometry on NIH-3T3 cells co-transfected with BTN2A1 WT and BTN3A1 Glu106-Ala, no zoledronate
[9] = molecular target: BTN2A1-BTN3A1-zipper ectodomain complex (construct #1, long linker version with high affinity zippers) (human); experiment: SPR, equilibrium; BTN2A1-BTN3A1 ectodomain complex immobilised, soluble TCR injected
[10] = molecular target: full-length human BTN3A1 on transfected cells (human) (UniProt O00481); experiment: flow cytometry, γδTCR tetramer-PE on BTN3A1-transfected NIH-3T3 cells treated with isotype IgG1κ (black number); SAv control 25
[11] = molecular target: BTN2A1 ectodomain homodimer, disulfide-linked (C-terminal Cys247, acidic or basic leucine zipper) (human) (UniProt Q7KYR7); experiment: SPR, soluble TCR over immobilised BTN2A1 homodimer, KD at equilibrium
[12] = molecular target: full-length human BTN3A1 on transfected cells pre-treated (cross-linked) with anti-BTN3A mAb clone 20.1 (human); experiment: flow cytometry, FRET (YG 670/30) between TCR tetramer-PE and anti-BTN3A 20.1-AF647 on BTN3A1+ NIH-3T3 cells; with IgG1κ-AF647 the gate holds 0.02, with SAv 0
full-length human BTN3A1 on transfected cells pre-treated (cross-linked) with anti-BTN3A mAb clone 20.1 (human), sequence (O00481 30-513): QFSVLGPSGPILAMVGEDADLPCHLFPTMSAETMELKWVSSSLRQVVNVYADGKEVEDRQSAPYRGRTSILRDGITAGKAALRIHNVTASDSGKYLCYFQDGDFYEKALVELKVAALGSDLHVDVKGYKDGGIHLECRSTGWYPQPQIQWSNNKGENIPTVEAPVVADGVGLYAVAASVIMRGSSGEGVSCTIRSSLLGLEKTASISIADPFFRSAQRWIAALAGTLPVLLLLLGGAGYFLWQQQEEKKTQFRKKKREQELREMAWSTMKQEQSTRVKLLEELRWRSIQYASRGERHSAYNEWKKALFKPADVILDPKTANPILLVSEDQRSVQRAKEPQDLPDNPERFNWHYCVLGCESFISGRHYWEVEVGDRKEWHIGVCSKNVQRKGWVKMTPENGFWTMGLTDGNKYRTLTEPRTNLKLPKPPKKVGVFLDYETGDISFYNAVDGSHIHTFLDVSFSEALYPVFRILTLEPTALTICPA

full-length human BTN3A1 on transfected cells (human), sequence (O00481 30-513): as above
BTN2A1 (WT) and BTN3A1 (Glu106-Ala) co-expressed on NIH-3T3 cells (human), sequence (Q7KYR7 29-527 limits assumed, chain 1 of 2): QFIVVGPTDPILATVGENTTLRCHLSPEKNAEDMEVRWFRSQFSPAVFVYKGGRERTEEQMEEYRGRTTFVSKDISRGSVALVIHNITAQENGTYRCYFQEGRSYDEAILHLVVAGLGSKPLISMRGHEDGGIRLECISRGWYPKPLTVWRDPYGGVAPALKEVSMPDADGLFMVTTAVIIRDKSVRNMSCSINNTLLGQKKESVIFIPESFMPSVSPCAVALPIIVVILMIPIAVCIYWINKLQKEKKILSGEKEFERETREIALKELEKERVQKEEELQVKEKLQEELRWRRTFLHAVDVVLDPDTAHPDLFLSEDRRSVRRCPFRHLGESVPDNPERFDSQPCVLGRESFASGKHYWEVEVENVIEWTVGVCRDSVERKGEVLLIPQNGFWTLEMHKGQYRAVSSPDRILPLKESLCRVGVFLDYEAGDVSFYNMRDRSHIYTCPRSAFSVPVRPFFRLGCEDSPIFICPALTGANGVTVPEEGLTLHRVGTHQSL
BTN2A1 (WT) and BTN3A1 (Glu106-Ala) co-expressed on NIH-3T3 cells (human), sequence (chain, as listed by the source E106A E106A limits assumed, chain 2 of 2): as the sequence (O00481 30-513) above, with E106A counted along it
BTN2A1 (WT) and BTN3A1 (WT) co-expressed on NIH-3T3 cells (human), sequence (Q7KYR7 29-527, chain 1 of 2): as the sequence (Q7KYR7 29-527 limits assumed, chain 1 of 2) above
BTN2A1 (WT) and BTN3A1 (WT) co-expressed on NIH-3T3 cells (human), sequence (chain, as listed by the source, chain 2 of 2): as the sequence (O00481 30-513) above
BTN2A1 ectodomain homodimer, disulfide-linked (C-terminal Cys247, acidic or basic leucine zipper) (human), sequence (Q7KYR7 29-248, chain 1 of 2): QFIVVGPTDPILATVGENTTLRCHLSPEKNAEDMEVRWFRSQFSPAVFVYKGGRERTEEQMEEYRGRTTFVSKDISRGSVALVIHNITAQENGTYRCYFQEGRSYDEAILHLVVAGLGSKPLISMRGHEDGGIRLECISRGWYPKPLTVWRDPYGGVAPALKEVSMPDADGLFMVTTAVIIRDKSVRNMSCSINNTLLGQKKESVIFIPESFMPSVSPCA
BTN2A1 ectodomain homodimer, disulfide-linked (C-terminal Cys247, acidic or basic leucine zipper) (human), sequence (Q7KYR7 29-248, chain 2 of 2): as the sequence (Q7KYR7 29-248, chain 1 of 2) above
BTN2A1 (Ser44-Arg) and BTN3A1 (WT) co-expressed on NIH-3T3 cells (human), sequence (Q7KYR7 29-527 S72R, chain 1 of 2): as the sequence (Q7KYR7 29-527 limits assumed, chain 1 of 2) above, with S44R counted along it
BTN2A1 (Ser44-Arg) and BTN3A1 (WT) co-expressed on NIH-3T3 cells (human), sequence (chain, as listed by the source S44R S44R, chain 2 of 2): as the sequence (O00481 30-513) above
BTN2A1 (Ser44-Arg) and BTN3A1 (Glu106-Ala) co-expressed on NIH-3T3 cells (human), sequence (Q7KYR7 29-527 S72R limits assumed, chain 1 of 2): as the sequence (Q7KYR7 29-527 limits assumed, chain 1 of 2) above, with S44R counted along it
BTN2A1 (Ser44-Arg) and BTN3A1 (Glu106-Ala) co-expressed on NIH-3T3 cells (human), sequence (chain, as listed by the source S44R E106A S44R E106A limits assumed, chain 2 of 2): as the sequence (O00481 30-513) above, with E106A counted along it

B1: soluble G115 Vγ9Vδ2+ TCR His85γ-Ala (TCR, from a related filing, V domains shown)
V domain 1: AIELVPEHQTVPVSIGVPATLRCSMKGEAIGNYYINWYRKTQGNTMTFIYREKDIYGPGFKDNFQGDIDIAKNLAVLKILAPSERDEGSYYCACDTLGMGGEYTDKLIFGKGTRVTVEP
V domain 2: AGHLEQPQISSTKTLSKTARLECVVSGITISATSVYWYRERPGEVIQFLVSISYDGTVRKESGIPSGKFEVDRIPETSTSTLTIANVEKQDIATYYCALWEAQQELGKKIKVFGPGTKLIITD
- mean fluorescence intensity of TCR tetramer (black gate) [1]: 28100
- mean fluorescence intensity of TCR tetramer (black gate) [2]: 10800
- mean fluorescence intensity of TCR tetramer (black gate) [3]: 635
- mean fluorescence intensity of TCR tetramer (black gate) [4]: 1700
- mean fluorescence intensity of TCR tetramer (black gate) [5]: 11300
- mean fluorescence intensity of TCR tetramer (black gate) [6]: 26600
- mean fluorescence intensity of TCR tetramer (black gate) [7]: 23300
- mean fluorescence intensity of TCR tetramer (black gate) [8]: 7210
- Kd [9]: 740 µM
- MFI of PE (GFP+ gate) [10]: 33

B2: G115 Vγ9Vδ2+ TCR tetramer Lys108γ-Ala (TCR, from a related filing, V domains shown)
V domain 1: AIELVPEHQTVPVSIGVPATLRCSMKGEAIGNYYINWYRKTQGNTMTFIYREKDIYGPGFKDNFQGDIDIAKNLAVLKILAPSERDEGSYYCACDTLGMGGEYTDKLIFGKGTRVTVEP
V domain 2: AGHLEQPQISSTKTLSKTARLECVVSGITISATSVYWYRERPGEVIQFLVSISYDGTVRKESGIPSGKFEVDRIPETSTSTLTIHNVEKQDIATYYCALWEAQQELGAKIKVFGPGTKLIITD
- MFI of PE (GFP+ gate) [10]: 25

B3: soluble G115 Vγ9Vδ2+ TCR Glu52δ-Ala (TCR, from a related filing, V domains shown)
V domain 1: AIELVPEHQTVPVSIGVPATLRCSMKGEAIGNYYINWYRKTQGNTMTFIYRAKDIYGPGFKDNFQGDIDIAKNLAVLKILAPSERDEGSYYCACDTLGMGGEYTDKLIFGKGTRVTVEP
V domain 2: AGHLEQPQISSTKTLSKTARLECVVSGITISATSVYWYRERPGEVIQFLVSISYDGTVRKESGIPSGKFEVDRIPETSTSTLTIHNVEKQDIATYYCALWEAQQELGKKIKVFGPGTKLIITD
- Kd [11]: 93 µM
- Kd [9]: 140 µM
- MFI of PE (GFP+ gate) [10]: 32

B4: G115 Vγ9Vδ2+ TCR tetramer with combined His85γ-Ala and Glu52δ-Ala mutations (TCR, from a related filing, V domains shown)
V domain 1: AIELVPEHQTVPVSIGVPATLRCSMKGEAIGNYYINWYRKTQGNTMTFIYRAKDIYGPGFKDNFQGDIDIAKNLAVLKILAPSERDEGSYYCACDTLGMGGEYTDKLIFGKGTRVTVEP
V domain 2: AGHLEQPQISSTKTLSKTARLECVVSGITISATSVYWYRERPGEVIQFLVSISYDGTVRKESGIPSGKFEVDRIPETSTSTLTIANVEKQDIATYYCALWEAQQELGKKIKVFGPGTKLIITD
- MFI of PE (GFP+ gate) [10]: 38

B5: soluble G115 Vγ9Vδ2+ TCR Lys53δ-Ala (TCR, from a related filing)
TCR delta: AIELVPEHQTVPVSIGVPATLRCSMKGEAIGNYYINWYRKTQGNTMTFIYREADIYGPGFKDNFQGDIDIAKNLAVLKILAPSERDEGSYYCACDTLGMGGEYTDKLIFGKGTRVTVEPRSQPHTKPSVFVMKNGTNVACLVKEFYPKDIRINLVSSKKITEFDPAIVISPSGKYNAVKLGKYEDSNSVTCSVQHDNKTVHSTDFEVKTDSTDHVKPKETENTKQPSKSCHKPKAIVHTEK
TCR gamma: AGHLEQPQISSTKTLSKTARLECVVSGITISATSVYWYRERPGEVIQFLVSISYDGTVRKESGIPSGKFEVDRIPETSTSTLTIHNVEKQDIATYYCALWEAQQELGKKIKVFGPGTKLIITDKQLDADVSPKPTIFLPSIAETKLQKAGTYLCLLEKFFPDVIKIHWEEKKSNTILGSQEGNTMKTNDTYMKFSWLTVPEKSLDKEHRCIVRHENNKNGVDQEIIFPPIKTDVITMDPKDNCSKDANDTLLLQLTNTSA
- Kd [11]: 81 µM
- % cells in the FRET gate [12]: 34%

Source: US20250179144A1
